Measurements: the DeepSol protein solubility set

Assay: soluble on expression in E. coli; label from the status in PepcDB or PDB records

| Sequence | soluble on expression in E. coli |
| --- | --- |
| MCSTEKLSEADANLPYFHGALMNIDADQLLVNEGDFMVTMKKQLDINKLQLFLAVRLKKGIRRYEIKRTSKTAKIGGKTSQNIVKLINMLKADPIEIRGEKVVLKRAIPKGKFQLMHKDVIFQKKIGAGAYGTVYRGKLVKTDEVIAVKKLDPEGADEDGLAEMMKEARVMQLYDHPNIVKFHGFILDDLPYLLVLEYCNGGAVEDRLRDKGEKIKVPTRVKYTYMAACGMDYLHKKNCIHRDIASRNCLIHKGVVKMADFGMCRAQSVYKVDLKKPCNIRWLAPEVWDNGETRFNTDVYAFGIMMWEFFETPFKSPYVEMKAAQVKRKTRAGYRLPPPPSMPSRMVEIMSECWQVDAEKRPTAEELKEKLEEFKKKTENSITTSAPPTSVEKSKLSVSSEPTTKSVDPNKSRL | not soluble |
| MAAFMEEALVEARRARDAGEVPVGCVFVHGDKVVARGGNEVNVHRNATRHAEFICIDAILASCRERRLPARQLFSEITVVVTVEPCIMCSAALHTLGVKEIIYGCENDRFGGKTVVDVAAVVGHRIEITGGVRADEAMALLKDFYKGDNPAAPPQAKKKKLEHHHHHH | soluble |
| MCPVENKWLKVGQKGAGPGARSSHAMTVVGNKVYCFGGELKPTIHIDNDLYVFDLETQEWSIAPATGEAPFPCFGVSMVTIGSTIYVYGGRDDKRRYNGLHSYDTETNEWKLLAPVEEGLPGRSYHSMAGDDRKVYVFGGVTAKGRVNTLHAYDVVDQKWVEYPAAGEACKGRGAPGLVVVEGRIWVLFGFDGNELGDIHCFDLASEQWKAVETTGDVPAARSVFPAVSYGKYIVIYGGEEEPHELMHMGAGKMSGEVYQLDTETLVWERIVCGNEEEKPSQRGWCAFTKAVKDGEEGLLVHGGNSPTNERLDDLVFWGFSHLNVN | soluble |
| MVKETKLYDLLGVSPSANEQELKKGYRKAALKYHPDKPTGDTEKFKEISEAFEILNDPQKREIYDQYGLEAARSGGPSFGPGGPGGAGG | soluble |
| MSLGTLASLHLNSGDAHHKQRTVTILEFSSSLKLVYKPRSLKVDGVFNGLLAFLNDRTGEVIKDQYCPKVLQRDGYGYVEFVTHQSCQSLEEVSDFYERLGSLMSLSYVLNSSDFHFENIIAHGPYPVLIDLETIIHNTADSSEETSTAMDRAFRMLNDSVLSTGMLPSSIYYRDQPNMKGLNVGGVSKSEGQKTPFKVNQIANRNTDEMRIEKDHVTLSSQKNLPIFQSAAMESVHFLDQIQKGFTSMYQWIEKNKQEFKEQVRKFEGVPVRAVLRSTTRYTELLKSSYHPDLLRSALDREVLLNRLTVDSVMTPYLKEIIPLEVEDLLNGDVPYFYTLPEERALYQEASAINSTFFTTSIFHKIDQKIDKLGIEDHTQQMKILHMSMLASNANHYADVADLEGHHHHHH | not soluble |
| MNENQLSKRLATVGDLIPRGSRLADIGSDHAYLPVALMLENKLSFAVAGEVVEGPYQSAKTQVSKSNLTDKIIVRLANGLDAIEPEDQIDVISICGMGGTLIRDILEAGRKKNRLTGKERLVLQPNIGEPTLRRWLMANDYSIIDETIVEENRKLYEIIVAEKTEQSVSYTDQELLFGPVLIKKQGPVFTKKWQRELKQRKTVLAQLAKASGEHIEKQAKLQQDQQLIEEVLANGCER | not soluble |
| HHHHHHHSEMTPREIVSELDKHIIGQDNAKRSVAIALRNRWRRMQLNEELRHEVTPKNILMIGPTGVGKTEIARRLAKLANAPFIKVEATKFTEVGYVGKEVDSIIRDLTDAAVKMVRVQAIEKNRYRAEELAEERILDVLIPPAKNNWGQTEQQQEPSAARQAFRKKLREGQLDDKEIEIDLAAAPMGVEIMAPPGMEEMTSQLQSMFQNLGGQKQKARKLKIKDAMKLLIEEEAAKLVNPEELKQDAIDAVEQHGIVFIDEIDKICKRGESSGPDVSREGVQRDLLPLVEGCTVSTKHGMVKTDHILFIASGAFQIAKPSDLIPELQGRLPIRVELQALTTSDFERILTEPNASITVQYKALMATEGVNIEFTDSGIKRIAEAAWQVNESTENIGARRLHTVLERLMEEISYDASDLSGQNITIDADYVSKHLDALVADEDLSRFIL | soluble |
| MSLEREVCVNQLLKFLDSIRGRLSFRMVERLFSRGLDENPIFEAISKSGALAKNVIIILGGRGCGKTLVMRYIKHYFEPEGWDYKYFSGDQFKEADAQELMKIISETRDLLENSEDYKVIVGIDDVVEASEAIRDTIKNQLVPLVVDYAGRIKLVISGQSERVVGTTTVLHILEDTLGRSPKAEMLFGEYPGEGHHHHHH | soluble |
